From US20240189443A1, “PD-L1 AND TLR7 DOUBLE-TARGETING NANOBODY COUPLING DRUG AND USE THEREOF IN ANTI-TUMOR” (SHANGHAI INSTITUTE OF MATERIA MEDICA, CHINESE ACADEMY OF …, priority 2021, published 2024) come the findings set out here.

Assay [1] deals with IFN-γ-induced high-expression PD-L1 CT26. Briefly: IFN-γ-induced high-expression PD-L1 CT26 subcutaneous tumor-bearing model, conjugate vs combined administration. The settings on record: Day 14, Nb16 or Nb16-SZU-101 10 mg/kg, SZU-101 0.5 mg/kg, intraperitoneal, 4 doses. The assay is classed as in vivo, BALB/c mouse. How it is done: In an IFN-γ-induced high-expression PD-L1 CT26 subcutaneous tumor-bearing BALB/c mouse model, mice were randomly divided into four groups, namely an mFc group, an Nb16 group, an Nb16/SZU-101 combined administration group and an NB16-SZU-101 nanobody conjugate drug group, wherein the administration dosage of the mFc or Nb 16 or Nb16-SZU-101 was 10 mg/kg, the administration mode was intraperitoneal administration, the administration dosage of the SZU-101 was 0.5 mg/kg, and the administration mode was intraperitoneal administration; the drug was administered on Day 2, Day 6, Day 10 and Day 13 for a total of 4 times. Tumor sizes were measured 2-3 times per week, and tumor growth curves were drawn; and anatomical weighing and photographing were performed on mice at Day 14.

Assay [2] concerns the target PD-1/PD-L1 (Mus musculus, UniProt Q9EP73). Put plainly: ELISA PD-1/PD-L1 blocking activity assay of nanobody Nb16. The assay is classed as binding. On the set-up: A Mouse PD-L1 (ECD)-pFUSE-hIgG1-Fc vector is constructed; made in house; host or cells: HEK293F (PD-L1-Fc). How it is done: Coating the plate with mPD-L1-Fc fusion protein at 4° C. overnight, then the plate was sealed with BSA at 37° C. for 2 hours, Nb16 nanobodies of different concentrations and 10 μg/mL mouse PD-1-Fc-Biotin fusion protein were added in each hole., After reacting at room temperature for 1 hour, the plate was washed and antibody SA-HRP was added, and the plate reacted at room temperature for 1 hour. After washing, a color developing solution was added, and an absorption value was read at a wavelength of 450 nm.
For orientation: In an ELISA, binding on a coated surface is turned into a signal by an enzyme label.

Assay [3] relates to induced high-expression PD-L1 CT26 tumor cell. Briefly: Combined anti-tumor effect of Nb16 and SZU-101, IFN-γ-induced CT26 subcutaneous tumor model. The assay is classed as in vivo, BALB/c mouse. Conditions: Nb16 10 mg/kg intraperitoneal, SZU-101 3 mg/kg peritumoral. Here is the method:
The mouse CT26 tumor cells were recovered and passaged, it was ensured that tumor cells at least have been subjected to 3 generations during tumor-bearing, and mouse IFN-γ with a final concentration of 100 ng/mL was used to induce tumor cells for 24 h before tumor-bearing, so that the cell surface thereof highly expresses PD-L1; the induced high-expression PD-L1 CT26 tumor cell was inoculated subcutaneously into a female BALB/c mouse, wherein the inoculation amount was 1×10^6 cells/one; and randomly grouping mice into four groups (9 per group), i.e., a same-type control group (mFc), a nano-antibody Nb16 group (Nb16), a TLR7 agonist SZU-101 group (SZU-101) and a combined treatment group (NB16/SZU-101), wherein the administration amount of the mFc and the Nb16 was 10 mg/kg, and intraperitoneal administration was performed; and the administration amount of the SZU-101 was 3 mg/kg, and the tumor was administered circumferentially. The administration cycle were Nb16 administered on D1, D5, D9, D12, and D14 and SZU-101 administered on D9-D14 (3A). The body weight of the mouse and the tumor major diameter (L) and the short diameter (W) in the administration cycle were observed and recorded until the anatomical endpoint, and the tumor volume V=(L×W×W)/2 was calculated, a tumor growth curve was drawed, and the tumor inhibition rate was calculated; and the experiment was terminated on the fifteenth day. After performing euthanasia, the animal was dissected, and the subcutaneous tumor was taken out.

For assay [4], the target named is human PD-L1 (Homo sapiens, UniProt Q9NZQ7). Briefly: CDR affinity maturation of anti-human PD-L1 nanobodies, affinity compared with original antibody. The assay is classed as binding. Conditions: relative to original antibody h_Nb1 VHH or h_Nb2 VHH. The text has this: Wherein, the original antibody corresponding to the sequence shown in SEQ ID NO.92-106 is h_Nb1 VHH (SEQ ID NO.21); and the original antibody corresponding to the sequence shown in SEQ ID NO.107 -117 is h_Nb2 VHH (SEQ ID NO.25).
human PD-L1, sequence (Q9NZQ7 19-290): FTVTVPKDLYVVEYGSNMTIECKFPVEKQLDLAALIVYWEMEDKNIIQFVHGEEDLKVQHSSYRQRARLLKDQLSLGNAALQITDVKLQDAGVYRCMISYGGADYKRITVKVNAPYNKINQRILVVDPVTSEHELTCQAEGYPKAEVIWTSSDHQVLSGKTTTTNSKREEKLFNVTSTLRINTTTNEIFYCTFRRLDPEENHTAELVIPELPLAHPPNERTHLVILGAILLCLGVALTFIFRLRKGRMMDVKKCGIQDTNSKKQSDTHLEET

Values joined by “and” are separate entries in the source; they are usually repeats but may differ in a detail not shown here. Equal entries are not always repeated.

PD-1/PD-L1, sequence (Q9EP73 19-239 limits assumed): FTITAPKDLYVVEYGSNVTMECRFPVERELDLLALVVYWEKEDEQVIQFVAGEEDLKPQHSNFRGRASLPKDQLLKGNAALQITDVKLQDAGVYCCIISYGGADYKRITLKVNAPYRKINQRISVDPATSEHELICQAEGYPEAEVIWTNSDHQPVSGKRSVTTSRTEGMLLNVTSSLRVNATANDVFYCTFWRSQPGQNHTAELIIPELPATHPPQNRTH

B1: Nb16: anti-PD-L1 nanobody, VHH sequence SEQ ID NO: 1, expressed as Fc fusion (protein)
chain: QVQLQESGGGSVQAGGSLRLSCAASGYTDRNYWMGWFRQAPGKEREGVAALYTRTGSTYYADSVKGRFTISHDNAKNTLYLQMNSLKPEDTAVYYCAADSNAYGLAPLHHYWGQGTQVTVSS
modifications: left off: a dimerising Fc or GST
In the case of B1, the Tumor inhibitory rate is given as 30% in assay [1] and 35% in assay [3] (day 15). For the same molecule, the “Endpoint tumor Weight” value was 0.263 g and 0.591 g and 0.342 g and 0.334 g and 0.494 g and 0.442 g in assay [1] (individual mice); 0.806 g and 0.505 g and 0.460 g and 0.450 g and 0.250 g and 0.381 g and 0.664 g and 0.361 g and 0.418 g in assay [3] (individual mice, day 15). Besides, in assay [2], the “Blocking of PD-1/PD-L1 binding” value is listed as “effectively blocked”. For the same molecule, the “Anti-tumor effect” value in assay [3] is recorded as “significantly inhibit tumor growth”.

B2: h_Nb2_G101Y: affinity-matured h_Nb2 VHH, SEQ ID NO: 112 (protein)
VHH: DVQLQESGGGLVQPGGSLRLSCAASGFTFGDRWMYWLRQAPGKGLEWVSSINPAGRSTYYADSVKGRFTISRDNAKNTLYLQMNSLKSEDTAVYYCTKDPGYYQKGQGTQVTVSS
modifications: h_Nb2_G101Y
Take B2: the Increased relative affinity in assay [4] turned out to be 8.4837.
